In a protein production outcome set (Wang et al. 2014):

Assay: label from the status in PepcDB records

## MRQFKTESKKLLDLMINSIYTNKEIFLRELISNASDAVDKLNFKSLQDPSVKIDQGDLAIRVSFDKDARTITISDNGIGMTAEELERNLGTIAHSGSEEFKTENAEQQGSDVDIIGQFGVGFYSAFMVASHVKVVSRAYGEDVAHVWESDGLEGYTIEDGERAEHGTDVILTLRENEKLDADGEAETYDRFLTEWGLKSLIQQYSNYVRYPIQMMVSKSRQKPKPEDAGDDYKPEYEDYQELETVNSMTPIWKKRSSDVEQKDYDEFYKSTFHDFDDPARTISFHAEGTLEYDALLFVPGRAPFDLYSKDYEKGLSLYSSNVLIMEKCDDLLPDYYNFVRGVVDSADVSLNISRETLQQNRQLKAIAKRVEKKITADLEDMRDNDREAYEKFFENFGRGLKYGIYSSYGMKADELADLLLFWSAKEQKMITLAEYAKGMPEDQKAIYYAAGDSRERLAKMPVVKGVLDRGYDVLLLTQDVDEFTFQAMREYVAADMPKIYEDDAAREAAEKAVADGAEPEVEDRHLELKNVATGDLDLATEDEKKEAEDATKENEDLFSAMKEALGDKVEKVAVSARLTDAPACITTEGPLSLEMEKVLQKGPEGAPDGMPKSQRVLELNAKHPVFDKLVAAQKAGDADKIKQYSGLLYDQALLVEGILPEDPVAFAAAVCNLM
  protein production: failed

## MAEGGGCRERPDAETQKSELGPLMRTTLQRGAQWYLIDSRWFKQWKKYVGFDSWDMYNVGEHNLFPGPIDNSGLFSDPESQTLKEHLIDELDYVLVPTEAWNKLLNWYGCVEGQQPIVRKVVEHGLFVKHCKVEVYLLELKLCENSDPTNVLSCHFSKADTIATIEKEMRKLFNIPAERETRLWNKYMSNTYEQLSKLDNTVQDAGLYQGQVLVIEPQNEDGTWPRQTLQSKSSTAPSRNFTT
  protein production: failed

## MRDYATTAAGFDLQRTAAATLSGTLQALNACVECCDRHALPGRIALFWEGKDGSRASYTFSELKALSGRFANFLQAQGVRPGDCVAGLLPRTPELLVTILGAWRLGAVYQPLFTAFGPKAIEHRVATAGSKVLVTDAANRDKLDELADPPLAVTVGGPKGQGIRRGDFSFWAELERYPAEFEPVPRSGEDPFLMMFTSGTTGLAKPVPVPLKAILAFVGYLREAVDLRPEDAFWNLADPGWAYGLYYAVAGPLAMGHPTTFYEGPFSVESTCRIIRDYGITNLAGSPTAYRLLMAAGAAAETALKGRLRAVSSAGEPLTPEVIRWFADRLGTTIHDHYGQTELGMVLCNHHALAHPVRVGAAGFACPGHRVVVLDDDLNELPPGQPGILALDRRRSPLMWFPGYQGLETAAFVGDYYLSGDTVELNEDGSISFVGRADDVITTSGYRVGPFDVESALIEHPAVMEAAVIGKPDPERTELVKAFVVLCAGHRPTPELADALQRYVRQRLSAHAYPREIEFLEELPKTPSGKIQRFLLRNQEIARQREAAPRAAAAN
  protein production: failed

## STRFPGVAIYLVEPRMGRSRRAFLTGLARSKGFRVLDACSSEATHVVMEETSAEEAVSWQERRMAAAPPGCTPPALLDISWLTESLGAGQPVPVECRHRLEVAGPRKGPLSPAWMPAYAC
  protein production: not failed

## MFITLSERFGLLLAGGFAIMTLAPLDKLGPGRTRSWRATALLVVLFSLFTILGTYNGNIVFQSFANLRAMGAVTAGLFGGPMVGALTGLIAGGHRYFIDVGGFSAVPCGLATFLEGLAAGLFAWRFPSRSLDWGTAMTFAAVGEAVHMCLVLGLARPYAQAVDLVEVIGLPMILLNGVGAAIFVQALRMQMHFRDLRDSSQARQILSIANRTLPHLRAGLSAASARATAEIILDETRVAAVALTSNDMVMAHVGAASDHHRAGHSVCTQATRRVATDGIPLFVTGHDEIGCQLEACPLCSAIIVPLRKGDTILGCLKLYGTKDRPLDQTLFELAKGLADLFATQIELEDIGIKNQLLARAEIRRLQAQINPHFLFNSLNTVASFCRTAPGQARELILDLARYMRRNLDTSREAIHLAEEVEQIRAYLVIEKARFGERIRAVIDIDPETEHCLVPPLLIQPLVENSVRHGILGNEEGGVVRLATSMEDGHVVVVVEDDGAGMPESTRQGILNGTPVTAHGEGIGASNCNQRLVQLYGPAYALSIDSAPGMGTRITFRVPASTDAEVFASAAA
  protein production: failed

## LTTAGYYAAVDWGTSSFRLWIIGEDGAVLAERRSAEGMTTAAKTGFHTILDGHLAAVSAPAHLPIIICGMAGARQGWKEAGYIETPAALAEIAGRATAIPDVDRDIRILPGLAQRDRRHPDVMRGEETQLLGAAAHLGAGSHLVCMPGTHSKWVRLADDRVEGFSTFMTGELFDTIARHTILSHAVAEADTFAAGSAAFTDAVSRTRENPALATNLLFSVRAGQLLHGTAAADARAQLSGTLIGLEIAGALAGSGSVDGVCLVGSGGLGTLYRTALESQGLNVRAVDADEAVRAGLSAAARAIWPL
  protein production: not failed
